Consider two proteins from article PMC3477141, “Repositioning Antimicrobial Agent Pentamidine as a Disruptor of the Lateral Interactions of Transmembrane Domain 5 of EBV Latent Membrane Protein 1” (PLoS ONE, 2012).

Where no end group is shown, it is not given here.

As usually defined, the stoichiometry N is the number of molecules, sites or subunits per partner or assembly.

Series [1] deals with the molecule itself. As to the kind of experiment: coumarin fluorescence dequenching (self-quenching) assay; 100 nM coumarin labeled TMD-5 in 50 mM HEPES pH 7.4 with 150 uM C14 betaine micelles, room temperature overnight; excitation 360 nm, emission 430 nm; with or without 64 uM pentamidine.
Series [2] deals with the molecule itself. As to the kind of experiment: Bis-Tris SDS-PAGE; 12% NuPAGE Bis-Tris gel, MES SDS running buffer, room temperature; 200 uM TMD-5 peptide in Laemmli sample buffer overnight, heated at 90 C for 7 min; Coomassie stain; pentamidine to peptide ratios 0 to 20.

B1: coumarin labeled LMP-1 TMD-5 peptide (peptide)
peptide: {7‑hydroxycoumarin‑3‑carboxylic acid}-GGGPGWQLLAFFLAFFLDLILLIIALYLGPGG
notes: flank between the coumarin label and TMD-5; transmembrane domain 5 (TMD-5) of latent membrane protein 1 (LMP-1) of Epstein-Barr virus; C-terminal flank; also called coumarin labeled TMD-5; source: synthetic peptide, labeled with coumarin on the resin, purified by reverse phase HPLC
For B1, the binding result in series [1] was “binds”.

B2: LMP-1 TMD-5 peptide KKKK-TMD-5-KKKK (peptide)
peptide: KKKKWQLLAFFLAFFLDLILLIIALYLKKKK
notes: lysine flank added to increase the solubility of the peptide; transmembrane domain 5 (TMD-5) of latent membrane protein 1 (LMP-1) of Epstein-Barr virus; source: synthetic peptide, purified by reverse phase HPLC
With B2, the “stoichiometry N” value in series [2] came out at 3.
